Test [1] deals with human C3b (CompTech) (human). The experiment in a line: SPR; 300 RU human C3b amine-coupled on a CM5 chip; FH1-4 WT or variant injected in duplicate at up to 40 uM; Biacore X100, 25 C, 30 ul/min, 10 mM HEPES-buffered saline, 3 mM EDTA, 0.05% surfactant P20; steady-state affinity model.
Test [2] deals with human C3b (CompTech) (human).

With “FH1-4 A161S (from UniProt P08603 19-263) (domain or fragment)”, the KD as a ratio of the KD of WT FH1-4 in test [1] is 0.97 x WT.
Regarding “FH1-4 D130N (from UniProt P08603 19-263) (domain or fragment)”, the KD as a ratio of the KD of WT FH1-4 in test [1] amounted to 1.44 x WT.
Same read-out and setting: the same measure for “FH1-4 G69E (from UniProt P08603 19-263) (domain or fragment)”: 1.2 x WT.
Consider “FH1-4 Q81P (from UniProt P08603 19-263) (domain or fragment)”, for which, in test [2], the cofactor activity for FI-mediated cleavage of C3b on sheep erythrocytes, IC50 as a multiple of WT FH1-4 is 11 x WT and the decay acceleration of the C3 convertase (C3bBb) on sheep erythrocytes, IC50 as a multiple of WT FH1-4 was 25.1 x WT.
“FH1-4 S159N (from UniProt P08603 19-263) (domain or fragment)”: the KD as a ratio of the KD of WT FH1-4 in test [1] was determined as 1.2 x WT.
“FH1-4 M162V (from UniProt P08603 19-263) (domain or fragment)”: the KD as a ratio of the KD of WT FH1-4 in test [1] amounted to 1.23 x WT.

The values above are taken from publication PMC7840601.
